Residue numbers refer to the chain shown, from its start. One block for each binder: values may come before it.
Assays:
Experiment in all cases: SPR; biotinylated-Avitagged Sd proteins immobilized on sensor chips; Yki^30-146 or Vg^263-382 as analyte; carried out as previously described (ref. 28)
Details in all cases: both partners purified
[1] = target: T1, Scalloped, residues 223-440, wild type (Sd^223-440) (Drosophila melanogaster, UniProt P30052 223-440, acylated to completion with Myristoyl-Coenzyme A: a mixture acylated on Cys373 (hydroxylamine-sensitive, 47%) or on Lys350 (hydroxylamine-insensitive, 54%); biotin on the Avitag)
T1 construct: Scalloped (Sd), Drosophila homolog of human TEAD, UniProtKB P30052, residues 223-440; also called wt^Sd
T1 sequence (looked up): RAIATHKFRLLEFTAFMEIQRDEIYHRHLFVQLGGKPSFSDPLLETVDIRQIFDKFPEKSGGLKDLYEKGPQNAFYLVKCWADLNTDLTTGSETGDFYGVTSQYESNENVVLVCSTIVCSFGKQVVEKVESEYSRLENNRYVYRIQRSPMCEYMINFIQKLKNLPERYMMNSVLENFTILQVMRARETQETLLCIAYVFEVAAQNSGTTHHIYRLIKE

[2] = target: T2, Scalloped, residues 223-440, Glu352Gln mutant (Glu352Gln^Sd) (Drosophila melanogaster, UniProt P30052 223-440, Glu352Gln, acylated to completion with Myristoyl-Coenzyme A: predominantly on Lys350 (hydroxylamine-insensitive, 90%), the rest on Cys373 (10%); biotin on the Avitag)
T2 construct: Scalloped (Sd), Drosophila homolog of human TEAD, UniProtKB P30052, residues 223-440, with Glu352Gln; Mutation introduced into wt^Sd; source: E. coli, purified in a similar manner to wt^Sd, treated with Myristoyl-Coenzyme A
T2 sequence (looked up): T1 sequence (looked up) with E130Q

[3] = target: T3, Scalloped, residues 223-440, Lys350Ala mutant (Lys350Ala^Sd) (Drosophila melanogaster, UniProt P30052 223-440, Lys350Ala, acylated to completion with Myristoyl-Coenzyme A, only on Cys373 (hydroxylamine-sensitive, 100%); biotin on the Avitag)
T3 construct: Scalloped (Sd), Drosophila homolog of human TEAD, UniProtKB P30052, residues 223-440, with Lys350Ala; Mutation introduced into wt^Sd; source: E. coli, purified in a similar manner to wt^Sd, treated with Myristoyl-Coenzyme A
T3 sequence (looked up): T1 sequence (looked up) with K128A

Kd [1]: 0.38 nM
Kd [2]: 0.37 nM
Kd [3]: 2.3 nM
B1: Vestigial, residues 263-382 (Vg^263-382) (domain or fragment, Drosophila melanogaster, UniProt Q26366 263-382, looked up)
chain: ETPMGSGGGGLAGSGQGQAQYLSASCVVFTNYSGDTASQVDEHFSRALNYNNKDSKESSSPMSNRNFPPSFWNSNYVHPIPAPTHHQVSDLYGTATDTGYATDPWVPHAAHYGSYAHAAH

Kd [1]: 9.5 nM
Kd [2]: 4.9 nM
Kd [3]: 14 nM
B2: Yorkie, residues 30-146 (Yki^30-146) (domain or fragment, Drosophila melanogaster, UniProt Q45VV3 30-146, looked up)
chain: SNNLVVRVNQDTDDNLQALFDSVLNPGDAKRPLQLPLRMRKLPNSFFTPPAPSHSRANSADSTYDAGSQSSINIGNKASIVQQPDGQSPIAAIPQLQIQPSPQHSRLAIHHSRARSS
